One experiment concerns the target T1, CD3.
T1 chain: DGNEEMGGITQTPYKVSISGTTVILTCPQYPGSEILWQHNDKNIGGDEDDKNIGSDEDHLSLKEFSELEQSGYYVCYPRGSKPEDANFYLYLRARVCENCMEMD
Briefly: BLI (Octet), two-fold serial dilution (200-12.5 nM) of the construct. Background: In BLI a coated tip is dipped into the sample, and binding shifts an interference pattern.

Another experiment deals with T2, CTLA4 (UniProt P16410 36-161, limits assumed).
T2 construct: Immobilized antigen in the Octet assays
Briefly: Octet biolayer interferometry; antigen immobilized, B-Body as analyte. From the text:
In each instance, the antigen is immobilized and the B-Body is the analyte.

T2 sequence (P16410 36-161 limits assumed): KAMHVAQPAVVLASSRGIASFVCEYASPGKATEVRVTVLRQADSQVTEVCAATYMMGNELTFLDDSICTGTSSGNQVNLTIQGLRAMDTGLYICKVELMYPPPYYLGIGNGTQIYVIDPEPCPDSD

B1: non-mutagenized SP34-89 monovalent B-Body (bispecific antibody, V domains shown)
VH: EVQLVESGGGLVQPGGSLRLSCAASGFTFNTYAMNWVRQAPGKGLEWVARIRSKYNNYATYYADSVKGRFSISRDDSKNTAYLQMNSLRAEDTAVYYCVRHGNFGNSYVSWFAYWGQGTLVTV
VL: QAVVTQEPSLTVSPGGTVTLTCRSSTGAVTTSNYANWVQQKPGQAPRGLIGGTNKRAPWTPARFSGSLLGGKAALTITGAQAEDEADYYCALWYSNLWVFGGGTKLTVL
notes: VL and VH cloned into one arm of a 1×1 BC1 B-Body; also called SP34-89 VL-WT/SP34-89 VH-WT
In the experiment with CD3, B1 showed a Kd of 23 nM, a koff of 0.0071 s⁻¹ and a kon of 300000 M⁻¹ s⁻¹.

B2: bivalent bispecific B-Body “BC1” (bispecific antibody)
chain 1: not shown
chain 2: EVQLVESGGGLVQPGGSLRLSCAASGFTFSDYDIHWVRQAPGKGLEWVGDITPYDGTTNYADSVKGRFTISADTSKNTAYLQMNSLRAEDTAVYYCARLVGEIATGFDYWGQGTLVTVSSASPREPQVYTDPPSRDELTKNQVSLTCLVKGFYPSDIAVEWESNGQPENNYKTTPPVLDSDGSFFLYSKLTVDKSRWQQGNVFSCSVMHEALHNHYTQKSLSLSGEC
chain 3: not shown
chain 4: QVQLVESGGGVVQPGRSLRLDCKASGITFSNSGMHWVRQAPGKGLEWVAVIWYDGSKRYYADSVKGRFTISRDNSKNTLFLQMNSLRAEDTAVYYCATNDDYWGQGTLVTVSSASTKGPSVFPLAPSSKSTSGGTAALGCLVKDYFPEPVTVSWNSGALTSGVHTFPAVLQSSGLYSLSSVVTVPSSSLGTQTYICNVNHKPSNTKVDKKVEPPKSC
Consider B2, for which the binding result with CTLA4 is “no binding”.

What is called Kd is the equilibrium constant for the complex coming apart. Low values mean a tighter complex, high ones a looser complex. As a reminder, the koff is the first-order rate constant of dissociation. As a reminder, the kon is a measure of how fast the partners come together. Higher therefore signals faster complex formation.

These data come from patent publication US20250026861A1 (INVENRA, published 2025).
